Here are results for two molecules from US20250144178A1, “PHARMACEUTICAL COMPOSITION FOR CANCER TREATMENT COMPRISING FUSION PROTEIN INCLUDING IL-12 AND ANTI-FAP ANTIBODY AND ANTICANCER AGENT” (KANAPH THERAPEUTICS INC., priority 2022, published 2025).

The subject of assay [1] is FAP-overexpressing CT26 cells. Put plainly: Tumor growth inhibition, FAP-overexpressing CT26 model, repeated i.p. dosing. The assay is classed as in vivo, BALB/c mice. The note with it: 18 days after administration, control 50 μg T1.24m. How it is done:
In order to prepare an mouse FAP-expressing tumor animal model, FAP overexpression was induced in CT26, a mouse colorectal cancer cell line. Specifically, the FAP-overexpressing CT26 cells in culture were resuspended in Hanks' Balanced salt solution (HBSS, Gibco), and then each 100 μl of 1×10^6 tumor cells per each mouse was transplanted into the subcutaneous region of the left dorsal side of 6-week-old BALB/c mice using a 1 cc syringe (25G) to obtain a mouse FAP-expressing colorectal cancer animal model. The tumor size was measured using a digital vernier caliper by measuring the short axis and long axis of the tumor, and the tumor size was measured twice a week using the calculation formula of (short axis, mm) 2×(long axis, mm)×0.5.
Next, for drug efficacy evaluation, when the size of the tumor reached 100 mm^3, the mice were randomly divided into groups. Each experimental group consisted of 8 animals, and as a control, each 100 μl of 50 μg of T1.24m was intraperitoneally administered four times at an interval of 3 days. In the test group, each 100 μl of 10 μg and 100 μg of T1.01m, and 2 μg, 10 μg and 100 μg of T1.02m, respectively, were intraperitoneally administered four times at an interval of 3 days to evaluate the tumor growth inhibitory ability.

Assay [2] concerns FAP-overexpressing mouse colorectal cancer CT26. Put plainly: Tumor growth inhibition by IL-12 mutation, FAP-overexpressing CT26, single i.v. dose. It counts as in vivo, BALB/c mice. As to conditions: 10 μg i.v. once, 15 days after administration, control PBS, FIG. 28. How it is done: In order to evaluate the change in IL-12 activity according to the presence and extent of amino acid mutation, FAP-overexpressing mouse colorectal cancer CT26 was prepared by resuspending in PBS at a concentration of 5×10^5 cells/100 μl, and the tumor growth inhibitory ability was evaluated in a tumor animal model prepared by transplantation of the cells into 5-week-old female BALB/c mice.
Specifically, when the size of the tumor in the model reached 100 mm^3, the mice were randomly divided into groups. 100 μl of phosphate buffered saline (PBS) was administered once via tail vein injection of the control, and each of T1.01m, T1.02m and T1.03m was intravenously administered once at a dose of 10 μg.

Assay [3] deals with CT26 colorectal cancer with mouse FAP overexpressing NIH-3T3 cells. Put plainly: Tumor growth inhibition, CT26 co-injected with mouse FAP overexpressing NIH-3T3. The note with it: for tumor growth inhibitory ability compared to control: 14th day, control 50 μg T1.24m. It counts as in vivo, BALB/c mice. How it is done:
Specifically, the mouse FAP overexpressing NIH-3T3 cells and the CT26 cells in culture were resuspended in Hanks' Balanced salt solution (HBSS, Gibco) at a concentration of 1×10^6 cells/50 μl, respectively, and the cells were mixed in a 1:1 ratio, and then 100 μl per each mouse was transplanted into the subcutaneous region of the right flank of 6-week-old BALB/c mice using a 1 cc syringe (25G) to obtain an FAP-expressing fibroblast co-injection animal model. The tumor size was measured using a digital vernier caliper by measuring the short axis and long axis of the tumor, and the tumor size was measured twice a week using the calculation formula of (short axis, mm) 2×(long axis, mm)×0.5.
Next, for drug efficacy evaluation, when the size of the tumor reached 100 mm^3, the mice were randomly divided into groups. Each experimental group consisted of 10 animals, and as a control, each 100 μl of 50 μg of T1.24m was intraperitoneally administered three times at an interval of 3 days. In the test group, each 100 μl of 10 μg and 50 μg of T1.02m and 50 μg of T1.01m, respectively, were intraperitoneally administered three times at an interval of 3 days to evaluate the tumor growth inhibitory ability.

The test system of assay [4] is HEK-Blue IL-12 cells. Description: Signaling ability in IL-12 recognizing cells (STAT4 inducible SEAP reporter). The note with it: serial dilution from 4 nM, 24 hours, FIG. 18. It counts as cell-based, human. How it is done: The HEK-Blue IL-12 cell line transformed with the IL-12 receptor gene and the STAT4 inducible SEAP reporter gene into HEK293 cells, which are human embryonic kidney fibroblasts, was obtained from Invivogen (San Diego, USA). The HEK-Blue IL-12 cells were maintained in DMEM (GIBCO) containing 10% FBS (GIBCO), 100 μg/ml Normocin and 1×HEK-Blue selection.
Specifically, the HEK-Blue IL-12 cell line, which is an IL-12 recognizing cell, was diluted to 2.8×10^5 cells/ml and dispensed at 180 μl/well. Recombinant human IL-12, T1.01m, T1.02m, T1.03m and T1.12m were suspended at 4 nM and diluted by serial dilution. HEK-Blue IL-12 cells were treated with the diluted recombinant human IL-12, T1.01m, T1.02m, T1.03m and T1.12m. After 24 hours of treatment, the cell supernatant was collected and mixed with QUANTI-Blue Solution (Invivogen) in a 96-well plate. The reporter expression level was measured at 620 nm using a spectrophotometer (Thermo Fisher).

Assay [5] has as its target T1, recombinant mouse FAP (Mus musculus, UniProt P97321).
T1 sequence (P97321 1-761): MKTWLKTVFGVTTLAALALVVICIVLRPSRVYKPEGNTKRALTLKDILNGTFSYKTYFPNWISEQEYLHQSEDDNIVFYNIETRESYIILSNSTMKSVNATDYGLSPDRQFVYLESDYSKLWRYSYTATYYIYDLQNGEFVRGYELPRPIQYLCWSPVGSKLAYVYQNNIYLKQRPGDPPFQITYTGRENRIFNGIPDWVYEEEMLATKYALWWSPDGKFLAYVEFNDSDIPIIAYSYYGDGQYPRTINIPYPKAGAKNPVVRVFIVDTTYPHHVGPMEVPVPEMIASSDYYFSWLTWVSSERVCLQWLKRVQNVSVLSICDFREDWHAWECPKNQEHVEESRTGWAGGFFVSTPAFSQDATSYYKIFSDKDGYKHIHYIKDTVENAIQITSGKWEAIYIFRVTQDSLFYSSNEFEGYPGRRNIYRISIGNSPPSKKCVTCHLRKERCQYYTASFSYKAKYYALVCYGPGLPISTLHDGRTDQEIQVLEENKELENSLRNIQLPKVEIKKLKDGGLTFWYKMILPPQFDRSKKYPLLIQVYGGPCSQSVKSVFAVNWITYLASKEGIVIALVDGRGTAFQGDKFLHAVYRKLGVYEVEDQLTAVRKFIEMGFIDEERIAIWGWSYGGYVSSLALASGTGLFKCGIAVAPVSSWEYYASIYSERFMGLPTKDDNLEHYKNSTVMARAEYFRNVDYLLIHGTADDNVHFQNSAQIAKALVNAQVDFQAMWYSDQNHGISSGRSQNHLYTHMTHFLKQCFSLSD
Put plainly: Surface plasmon resonance binding to recombinant mouse FAP. As to conditions: SPR, 2 μg/ml protein, FIGS. 13 and 14. How it is done: The surface of the CM5 chip was activated with a 1:1 mixture of […] (N-hydroxysuccinimide) and […] (1-Ethyl-3-(3-dimethylaminopropyl) carbodiimide), and 25 μg/ml of anti-mouse IgG (Fc) antibody was immobilized for 400 seconds at a rate of 10 μl/min. The remaining active ester groups were blocked with 1 M ethanolamine. T1.01m, T1.02m and T1.03m were diluted to 2 μg/ml and reacted on the CM5 chip immobilized with the anti-mouse IgG (Fc) antibody. The recombinant mouse FAP was diluted to 200 nM in 1×HBS-EP+buffer solution and diluted by serial dilution. The diluted recombinant mouse FAP was reacted at a rate of 30 μl/min. The association and dissociation times were 180 seconds and 400 seconds, respectively. After the dissociation, stabilization was performed for 60 seconds, and then a regeneration was performed for 30 seconds with a 10 mM glycine pH 1.5 solution at a rate of 30 μl/min.
(Surface plasmon resonance follows binding to a sensor surface in real time, without labels.)

B1: T1.02m: K&H bispecific: anti-mu FAP/mu IL-12 mut1, mu IgG2a DANG (seq18, seq19, seq21) (antibody)
heavy: QVQLQQSGAELARPGASVNLSCKASGYTFTNNGINWLKQRTGQGLEWIGEIYPRSTNTLYNEKFKGKATLTADRSSNTAYMELRSLTSEDSAVYFCARTLTAPFAFWGQGTLVTVSAAKTTAPSVYPLAPVCGDTTGSSVTLGCLVKGYFPEPVTLTWNSGSLSSGVHTFPAVLQSDLYTLSSSVTVTSSTWPSQSITCNVAHPASSTKVDKKIEPRGPTIKPCPPCKCPAPNLLGGPSVFIFPPKIKDVLMISLSPIVTCVVVAVSEDDPDVQISWFVNNVEVHTAQTQTHREDYGSTLRVVSALPIQHQDWMSGKEFKCKVNNKDLPAPIERTISKPKGSVRAPQVYVLPPPEEEMTKKQVTLWCMVTDFMPEDIYVEWTNNGKTELNYKNTEPVLDSDGSYFMYSKLRVEKKNWVERNSYSCSVVHEGLHNHHTTKSFSRTPGK
light: QIVLTQSPAIMSASPGEKVTMTCSASSGVNFMHWYQQKSGTSPKRWIFDTSKLASGVPARFSGSGSGTSYSLTISSMEAEDAATYYCQQWSFNPPTFGGGTKLEIKRADAAPTVSIFPPSSEQLTSGGASVVCFLNNFYPKDINVKWKIDGSERQNGVLNSWTDQDSKDSTYSMSSTLTLTKDEYERHNSYTCEATHKTSTSPIVKSFNRNEC
chain: MWELEKDVYVVEVDWTPDAPGETVNLTCDTPEEDDITWTSDQRHGVIGSGKTLTITVKEFLDAGQYTCHKGGETLSHSHLLLHKKENGIWSTEILKNFKNKTFLKCEAPNYSGRFTCSWLVQRNMDLKFNIKSSSSSPDSRAVTCGMASLSAEKVTLDQRDYEKYSVSCQEDVTCPTAEETLPIELALEARQQNKYENYSTSFFIRDIIKPDPPKNLQMKPLKNSQVEVSWEYPDSWSTPHSYFSLKFFVRIQRAKEKMAETEEGCNQKGAFLVEKTSTEVQCKGGNVCVQAQDRYYNSSCSKWACVPCRVRSGGGGSGGGGSGGGGSRVIPVSGPARCLSQSRNLLKTTDDMVKTAREKLKHYSCTAEDIDHEDITRDQTSTLKTCLPLELHKNESCLATRETSSTTRGSCLPPQKTSLMMTLCLGSIYEDLKMYQTEFQAINAALQNHNHQQIILDKGMLVAIDELMQSLNHNGETLRQKPPVGEADPYRVKMKLCILLHAFSTRVVTINRVMGYLSSAGGGGSGGGGSEPRGPTIKPCPPCKCPAPNLLGGPSVFIFPPKIKDVLMISLSPIVTCVVVAVSEDDPDVQISWFVNNVEVHTAQTQTHREDYGSTLRVVSALPIQHQDWMSGKEFKCKVNNKDLPAPIERTISKPKGSVRAPQVYVLPPPEEEMTKKQVTLSCAVTDFMPEDIYVEWTNNGKTELNYKNTEPVLDSDGSYFMVSKLRVEKKNWVERNSYSCSVVHEGLHNHHTTKSFSRTPGK
In the case of B1, the “tumor growth inhibitory ability compared to control” value in assay [1] (2 μg i.p. four times at an interval of 3 days) is 80.1%; in assay [1] (10 μg i.p. four times at an interval of 3 days) it was 90.5%; in assay [1] (100 μg i.p. four times at an interval of 3 days), 89.8%; in assay [3] (10 μg i.p. three times at an interval of 3 days), 93.2%; in assay [3] (50 μg i.p. three times at an interval of 3 days), 92.7%. The “tumor growth inhibitory ability compared to the control” value in assay [2] was “excellent tumor growth inhibitory ability”. Besides, in assay [3] (24th day after administration, FIG. 24), the complete response result was “subjects in complete response were observed”. The “IL-12 recognition / STAT4 reporter gene expression (620 nm absorbance)” value in assay [4] was “IL-12 was recognized, and STAT4 expressed a reporter gene by inducing phosphorylation”. The “Binding to recombinant mouse FAP” value in assay [5] was “may bind to recombinant mouse FAP to specifically target FAP”.

B2: T1.12m: K&H: anti-mu FAP/null, mu IgG2a DANG (seq18, seq19, seq29); used as control (antibody)
heavy: QVQLQQSGAELARPGASVNLSCKASGYTFTNNGINWLKQRTGQGLEWIGEIYPRSTNTLYNEKFKGKATLTADRSSNTAYMELRSLTSEDSAVYFCARTLTAPFAFWGQGTLVTVSAAKTTAPSVYPLAPVCGDTTGSSVTLGCLVKGYFPEPVTLTWNSGSLSSGVHTFPAVLQSDLYTLSSSVTVTSSTWPSQSITCNVAHPASSTKVDKKIEPRGPTIKPCPPCKCPAPNLLGGPSVFIFPPKIKDVLMISLSPIVTCVVVAVSEDDPDVQISWFVNNVEVHTAQTQTHREDYGSTLRVVSALPIQHQDWMSGKEFKCKVNNKDLPAPIERTISKPKGSVRAPQVYVLPPPEEEMTKKQVTLWCMVTDFMPEDIYVEWTNNGKTELNYKNTEPVLDSDGSYFMYSKLRVEKKNWVERNSYSCSVVHEGLHNHHTTKSFSRTPGK
light: QIVLTQSPAIMSASPGEKVTMTCSASSGVNFMHWYQQKSGTSPKRWIFDTSKLASGVPARFSGSGSGTSYSLTISSMEAEDAATYYCQQWSFNPPTFGGGTKLEIKRADAAPTVSIFPPSSEQLTSGGASVVCFLNNFYPKDINVKWKIDGSERQNGVLNSWTDQDSKDSTYSMSSTLTLTKDEYERHNSYTCEATHKTSTSPIVKSFNRNEC
chain: EPRGPTIKPCPPCKCPAPNLLGGPSVFIFPPKIKDVLMISLSPIVTCVVVAVSEDDPDVQISWFVNNVEVHTAQTQTHREDYGSTLRVVSALPIQHQDWMSGKEFKCKVNNKDLPAPIERTISKPKGSVRAPQVYVLPPPEEEMTKKQVTLSCAVTDFMPEDIYVEWTNNGKTELNYKNTEPVLDSDGSYFMVSKLRVEKKNWVERNSYSCSVVHEGLHNHHTTKSFSRTPGK
Consider B2, for which the “IL-12 recognition / STAT4 reporter gene expression (620 nm absorbance)” value in assay [4] is recorded as “did not recognize IL-12”.
